Test results taken from the supplement of paper PMC6755084.

B1: minF1; the commonest letter at each place (parent)
chain: GAGACCGCAACTGAAAAGTTGTTATCAGAAATGGATGGGTTGAATTTCTGCACGTAGAAGCAAAAGGC

Variants of: B1
Assay: fraction ligated after 30 min (ligated reads / total reads); higher = more ligase activity
Conditions: with F1*subA RNA substrate (template-directed ligation), 42 °C
Summary of the method: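 RNAs for minimized ligase ribozyme variants were transcribed with T7 from PCR-amplified oligo-pool templates and purified on gels. Ligated and unligated species were resolved on gels, converted to cDNA with barcoded primers, and read on a MiSeq with core bases filtered at quality ≥30. Fraction ligated per variant is the ratio of ligated reads to total reads.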

| Variant | fraction ligated |
| --- | --- |
| A30T T32C | 0.0167 |
| A30T T32A | 0.0346 |
| A30T T32G | 0.0154 |
| A30T G42A | 0.202 |
| A30T G42T | 0.0705 |
| A30T G42C | 0.00805 |
| A31G A35C | 0.022 |
| A31G A35T | 0.0156 |
| A31G A35G | 0.294 |
| A29G A35T | 0.023 |
| A29G A35C | 0.0139 |
| A29G A35G | 0.204 |
| A29T A44C | 0.59 |
| A29T A44G | 0.734 |
| A29T A44T | 0.741 |
| A31C T32C | 0.0181 |
| A31C T32G | 0.0132 |
| A31C T32A | 0.0431 |
| A29T G33T | 0.453 |
| A29T G33A | 0.783 |
| A29T G33C | 0.721 |

| Variant | fraction ligated |
| --- | --- |
| A30T A35C | 0.0121 |
| A30T A35T | 0.0204 |
| A30T A35G | 0.161 |
| A31C A35C | 0.0149 |
| A31C A35T | 0.0132 |
| A31C A35G | 0.199 |
| A30T G33C | 0.663 |
| A30T G33A | 0.747 |
| A30T G33T | 0.387 |
| A31C G42T | 0.0885 |
| A31C G42A | 0.279 |
| A31C G42C | 0.00681 |
| A31C G37C | 0.00598 |
| A31C G37T | 0.0153 |
| A31C G37A | 0.0105 |
| G28C | 0.82 |
| G28T | 0.806 |
| A30T T36C | 0.0213 |
| A30T T36A | 0.0264 |
| A30T T36G | 0.0328 |
| A29G A31T | 0.812 |

| Variant | fraction ligated |
| --- | --- |
| A29G A31G | 0.795 |
| A29G A31C | 0.803 |
| G28C A35T | 0.0136 |
| G28C A35G | 0.0701 |
| G28C A35C | 0.0372 |
| A30T A44G | 0.68 |
| A30T A44T | 0.693 |
| A30T A44C | 0.52 |
| A29G G34C | 0.00249 |
| A29G G34A | 0.0509 |
| A29G G34T | 0.00809 |
| G28C A31C | 0.664 |
| G28C A31T | 0.814 |
| G28C A31G | 0.798 |
| A29C G34A | 0.042 |
| A29C G34T | 0.00671 |
| A29C G34C | 0.00225 |
| G28C G42C | 0.0102 |
| G28C G42T | 0.0849 |
| G28C G42A | 0.264 |
| A29C G42A | 0.283 |

| Variant | fraction ligated |
| --- | --- |
| A29C G42C | 0.00616 |
| A29C G42T | 0.0826 |
| A31G A44T | 0.804 |
| A31G A44C | 0.71 |
| A31G A44G | 0.788 |
| G28C T36A | 0.0306 |
| G28C T36C | 0.0172 |
| G28C T36G | 0.0324 |
| A31G G37T | 0.0111 |
| A31G G37A | 0.00669 |
| A31G G37C | 0.00462 |
| A29T G37A | 0.00694 |
| A29T G37C | 0.00775 |
| A29T G37T | 0.027 |
| G28C T32A | 0.0353 |
| G28C T32C | 0.0192 |
| G28C T32G | 0.0241 |
| A30C G34A | 0.0885 |
| A30C G34C | 0.00405 |
| A30C G34T | 0.00409 |
